Reference: paper PMC11389873 (Free radical biology & medicine, 2022)

Key:
[1] = biological target: Purified recombinant human apo-IDO1 (His6-IDO1), Alexafluor 647-labelled (human, UniProt P14902 1-403, Alexafluor 647 on Cys groups); assay: fluorescence polarisation
[2] = biological target: Purified recombinant human apo-TDO (GST-TDO), Alexafluor 647-labelled (human, UniProt P48775 1-406, Alexafluor 647 on Cys groups); assay: fluorescence polarisation
Purified recombinant human apo-TDO (GST-TDO), Alexafluor 647-labelled, sequence (P48775 whole entry): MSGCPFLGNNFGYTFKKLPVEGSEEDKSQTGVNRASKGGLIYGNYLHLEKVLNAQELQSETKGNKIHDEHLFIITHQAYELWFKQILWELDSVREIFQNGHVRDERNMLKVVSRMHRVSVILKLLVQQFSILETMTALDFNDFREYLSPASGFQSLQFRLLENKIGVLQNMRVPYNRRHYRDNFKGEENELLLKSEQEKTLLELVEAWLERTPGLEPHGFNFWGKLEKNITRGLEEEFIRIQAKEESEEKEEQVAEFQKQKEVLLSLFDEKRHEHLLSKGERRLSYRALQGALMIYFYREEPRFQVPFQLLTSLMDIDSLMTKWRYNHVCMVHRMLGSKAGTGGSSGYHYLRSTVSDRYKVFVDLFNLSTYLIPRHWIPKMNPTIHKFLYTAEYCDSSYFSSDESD

Purified recombinant human apo-IDO1 (His6-IDO1), Alexafluor 647-labelled, sequence (P14902 whole entry): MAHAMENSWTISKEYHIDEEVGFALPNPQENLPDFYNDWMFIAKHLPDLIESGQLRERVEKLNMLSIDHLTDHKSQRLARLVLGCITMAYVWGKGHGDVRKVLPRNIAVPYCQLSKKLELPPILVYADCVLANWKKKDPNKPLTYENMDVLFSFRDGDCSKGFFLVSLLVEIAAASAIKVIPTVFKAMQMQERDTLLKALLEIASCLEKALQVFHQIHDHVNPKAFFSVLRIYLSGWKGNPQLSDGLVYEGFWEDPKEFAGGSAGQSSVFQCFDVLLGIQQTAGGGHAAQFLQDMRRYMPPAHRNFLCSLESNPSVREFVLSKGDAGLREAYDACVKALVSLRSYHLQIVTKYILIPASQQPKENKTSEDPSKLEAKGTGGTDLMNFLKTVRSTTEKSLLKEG

- Kd [1]: 1500 ± 1300 nM
- Kd [2]: 1200 ± 400 nM
B1: Purified GST-tagged human GAPDH (natural protein)
chain: not shown
